17 variants from the supplement of paper PMC7125110 can be followed below.

First the molecules themselves.
B1: glmS ribozyme (parent)
chain: AUAAAAGCGCCAGAACUACAGAAAUGUAGUUGACGAGGAGGAGGUUUAUCGAAUUUUCGGCGGAUGCCUCCAAA

What all share (conditions): with glucosamine-6-phosphate
In data set [1] the parent is B1. As to the kind of experiment: kcat; higher = faster cleavage; RNA array. Put shortly: (§1)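 kobs was derived by fitting per-tile medians to one- or two-exponential decays after normalising signals to baseline and to non-cleaving reference variants. Those signals came from barcoded ribozyme variants transcribed in situ by E. coli RNA polymerase on sequenced MiSeq chips, followed through a hybridised Cy3 probe at 37 °C and imaged over ~14 h. Glucosamine-6-phosphate (40 μM to 10 mM) in HEPES/KCl/Mg(OAc)2 buffer was flowed in. Weighted Michaelis–Menten fits across concentrations then gave kcat and KM.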

In data set [2] the parent is B1. As to the kind of experiment: self-cleavage kobs at 160 uM GlcN6P; higher = faster cleavage; RNA array. Put shortly:
as §1

Data set [3] covers variants of B1. Description: self-cleavage kobs at 640 uM GlcN6P; higher = faster cleavage; RNA array. An outline of the steps: as §1
Data set [4] covers variants of B1. As to the kind of experiment: self-cleavage kobs at 2500 uM GlcN6P; higher = faster cleavage; RNA array. An outline of the steps:
as §1

Variants of B1 are the subject of data set [5]. As to the kind of experiment: KM; higher = weaker cofactor use; RNA array. An outline of the steps:
as §1

The variants in data set [6] derive from B1. Description: self-cleavage kobs at 10000 uM GlcN6P; higher = faster cleavage; RNA array. Put shortly:
as §1

The variants in data set [7] derive from B1. Description: self-cleavage kobs at 40 uM GlcN6P; higher = faster cleavage; RNA array. An outline of the steps:
as §1

± gives the standard error. For part of these data: This sample holds only a part of the variants without activity. A value given as a limit tells only on which side of the number the result lay.

For C50G G60U C61U U69A, the kcat in the data set with glucosamine-6-phosphate [1] was found to be 7.69e-05 ± 1.1e-05 s⁻¹. In addition, the “self-cleavage kobs at 160 uM GlcN6P” value with glucosamine-6-phosphate [2] was determined as 0.000102 ± 3.2e-05 s⁻¹. For the same variant, the “self-cleavage kobs at 640 uM GlcN6P” value with glucosamine-6-phosphate [3] worked out at 7.91e-05 ± 2.6e-05 s⁻¹. Besides, the “self-cleavage kobs at 2500 uM GlcN6P” value with glucosamine-6-phosphate [4] amounted to 7.43e-05 ± 1e-05 s⁻¹.

As to U46C U56C, in the data set with glucosamine-6-phosphate [1], the kcat is 0.000648 ± 3.9e-05 s⁻¹. The Michaelis-Menten constant (KM) with glucosamine-6-phosphate [5] is 866 ± 190 µM. Also, in the data set with glucosamine-6-phosphate [3], the “self-cleavage kobs at 640 uM GlcN6P” value was 0.000246 ± 7.8e-05 s⁻¹. The “self-cleavage kobs at 2500 uM GlcN6P” value in the data set with glucosamine-6-phosphate [4] was 0.000514 ± 0.00014 s⁻¹. Also, the “self-cleavage kobs at 10000 uM GlcN6P” value with glucosamine-6-phosphate [6] is 0.000596 ± 7.5e-05 s⁻¹.

Turning to C10G C58A, the kcat with glucosamine-6-phosphate [1] worked out at 1.01e-05 ± 1.8e-06 s⁻¹. The “self-cleavage kobs at 640 uM GlcN6P” value in the data set with glucosamine-6-phosphate [3] is less than 1e-05 s⁻¹. The “self-cleavage kobs at 10000 uM GlcN6P” value in the data set with glucosamine-6-phosphate [6] was less than 1e-05 s⁻¹.

For A48C U56G, in the data set with glucosamine-6-phosphate [1], the turnover number (kcat) is 0.000214 ± 2.7e-05 s⁻¹. Moreover, the Michaelis-Menten constant (KM) with glucosamine-6-phosphate [5] was determined as 5570 ± 1300 µM. For the same variant, the “self-cleavage kobs at 2500 uM GlcN6P” value in the data set with glucosamine-6-phosphate [4] came out at 6.9e-05 ± 1.3e-05 s⁻¹. Moreover, in the data set with glucosamine-6-phosphate [6], the “self-cleavage kobs at 10000 uM GlcN6P” value is 0.000135 ± 2.8e-05 s⁻¹.

Regarding C10A G32U A53U C67U, the kcat with glucosamine-6-phosphate [1] was found to be 1.23e-05 ± 4.1e-06 s⁻¹.

Take C61A U65G C67U: the kcat with glucosamine-6-phosphate [1] was 2.68e-05 ± 7.3e-06 s⁻¹.

With A39G C70A, in the data set with glucosamine-6-phosphate [1], the kcat came out at 0.000304 ± 4.8e-05 s⁻¹. The KM with glucosamine-6-phosphate [5] came out at 158 ± 60 µM. In addition, the “self-cleavage kobs at 40 uM GlcN6P” value with glucosamine-6-phosphate [7] amounted to 6.17e-05 ± 1.2e-05 s⁻¹. In the data set with glucosamine-6-phosphate [2], the “self-cleavage kobs at 160 uM GlcN6P” value amounted to 0.000136 ± 3.1e-05 s⁻¹. Further, the “self-cleavage kobs at 640 uM GlcN6P” value in the data set with glucosamine-6-phosphate [3] came out at 0.000306 ± 4.3e-05 s⁻¹. Also, in the data set with glucosamine-6-phosphate [4], the “self-cleavage kobs at 2500 uM GlcN6P” value was 0.000172 ± 7.3e-05 s⁻¹. The “self-cleavage kobs at 10000 uM GlcN6P” value with glucosamine-6-phosphate [6] worked out at 0.000303 ± 5e-05 s⁻¹.

On to A14C U54C, for which, in the data set with glucosamine-6-phosphate [1], the catalytic constant (kcat) is 0.00767 ± 0.0019 s⁻¹. Further, the KM with glucosamine-6-phosphate [5] was 3550 ± 1100 µM. Further, the “self-cleavage kobs at 40 uM GlcN6P” value in the data set with glucosamine-6-phosphate [7] stood at 0.000111 ± 1.2e-05 s⁻¹. Also, the “self-cleavage kobs at 160 uM GlcN6P” value with glucosamine-6-phosphate [2] amounted to 0.000296 ± 4.4e-05 s⁻¹. Besides, the “self-cleavage kobs at 640 uM GlcN6P” value with glucosamine-6-phosphate [3] came out at 0.000989 ± 0.00014 s⁻¹. Further, the “self-cleavage kobs at 2500 uM GlcN6P” value with glucosamine-6-phosphate [4] came to 0.00305 ± 0.00048 s⁻¹. In addition, the “self-cleavage kobs at 10000 uM GlcN6P” value with glucosamine-6-phosphate [6] amounted to 0.00592 ± 0.00066 s⁻¹.

Turning to A15U G32U C67U, the kcat in the data set with glucosamine-6-phosphate [1] is 0.000433 ± 0.00015 s⁻¹. Also, in the data set with glucosamine-6-phosphate [3], the “self-cleavage kobs at 640 uM GlcN6P” value came out at 3.29e-05 ± 1.4e-05 s⁻¹. Also, the “self-cleavage kobs at 2500 uM GlcN6P” value in the data set with glucosamine-6-phosphate [4] was determined as 6.84e-05 ± 1.9e-05 s⁻¹. The “self-cleavage kobs at 10000 uM GlcN6P” value in the data set with glucosamine-6-phosphate [6] amounted to 0.000204 ± 3.8e-05 s⁻¹.

With G44U A53U, the kcat in the data set with glucosamine-6-phosphate [1] was determined as 0.000149 ± 2.2e-05 s⁻¹. For the same variant, in the data set with glucosamine-6-phosphate [4], the “self-cleavage kobs at 2500 uM GlcN6P” value came to 0.00015 ± 6e-05 s⁻¹. The “self-cleavage kobs at 10000 uM GlcN6P” value with glucosamine-6-phosphate [6] was determined as 0.000129 ± 1e-05 s⁻¹.

In the case of U57A C67A, the kcat with glucosamine-6-phosphate [1] is 0.000119 ± 3.3e-05 s⁻¹. In addition, the “self-cleavage kobs at 640 uM GlcN6P” value with glucosamine-6-phosphate [3] was determined as 4.64e-05 ± 1.4e-05 s⁻¹. Also, the “self-cleavage kobs at 2500 uM GlcN6P” value with glucosamine-6-phosphate [4] was found to be 4.66e-05 ± 7.6e-06 s⁻¹. In addition, the “self-cleavage kobs at 10000 uM GlcN6P” value with glucosamine-6-phosphate [6] came out at 9.37e-05 ± 1.1e-05 s⁻¹.

For the variant A12G G41A, the kcat with glucosamine-6-phosphate [1] amounted to 0.00048 ± 0.00011 s⁻¹. The KM with glucosamine-6-phosphate [5] was 9920 ± 3500 µM. The “self-cleavage kobs at 640 uM GlcN6P” value with glucosamine-6-phosphate [3] is 3.72e-05 ± 1.2e-05 s⁻¹. In addition, the “self-cleavage kobs at 2500 uM GlcN6P” value with glucosamine-6-phosphate [4] is 8.85e-05 ± 1.7e-05 s⁻¹. Besides, the “self-cleavage kobs at 10000 uM GlcN6P” value in the data set with glucosamine-6-phosphate [6] worked out at 0.000246 ± 3.7e-05 s⁻¹.

For G35U U55C, the kcat with glucosamine-6-phosphate [1] is less than 1e-05 s⁻¹. In the data set with glucosamine-6-phosphate [7], the “self-cleavage kobs at 40 uM GlcN6P” value is less than 1e-05 s⁻¹. In the data set with glucosamine-6-phosphate [2], the “self-cleavage kobs at 160 uM GlcN6P” value was less than 1e-05 s⁻¹. Moreover, in the data set with glucosamine-6-phosphate [4], the “self-cleavage kobs at 2500 uM GlcN6P” value is less than 1e-05 s⁻¹. In addition, the “self-cleavage kobs at 10000 uM GlcN6P” value with glucosamine-6-phosphate [6] was less than 1e-05 s⁻¹.

Consider U31G C71G, for which, in the data set with glucosamine-6-phosphate [1], the kcat amounted to 0.000461 ± 0.0001 s⁻¹. In the data set with glucosamine-6-phosphate [5], the KM was found to be 408 ± 180 µM. In addition, the “self-cleavage kobs at 40 uM GlcN6P” value with glucosamine-6-phosphate [7] is 5.48e-05 ± 1.3e-05 s⁻¹. In the data set with glucosamine-6-phosphate [2], the “self-cleavage kobs at 160 uM GlcN6P” value was 0.000111 ± 2.7e-05 s⁻¹. In addition, the “self-cleavage kobs at 2500 uM GlcN6P” value with glucosamine-6-phosphate [4] was 0.000329 ± 7.1e-05 s⁻¹. Further, in the data set with glucosamine-6-phosphate [6], the “self-cleavage kobs at 10000 uM GlcN6P” value was determined as 0.000555 ± 9.7e-05 s⁻¹.

Turning to A6C C16G, the kcat with glucosamine-6-phosphate [1] worked out at 1.5e-05 ± 3.9e-07 s⁻¹. The Michaelis constant (KM) with glucosamine-6-phosphate [5] is 9790 ± 480 µM. Further, the “self-cleavage kobs at 40 uM GlcN6P” value with glucosamine-6-phosphate [7] is less than 1e-05 s⁻¹. Further, in the data set with glucosamine-6-phosphate [2], the “self-cleavage kobs at 160 uM GlcN6P” value was less than 1e-05 s⁻¹. In the data set with glucosamine-6-phosphate [3], the “self-cleavage kobs at 640 uM GlcN6P” value is less than 1e-05 s⁻¹.

In the case of U30A G66U, the kcat in the data set with glucosamine-6-phosphate [1] was determined as 0.000236 ± 1.9e-05 s⁻¹. Further, the KM in the data set with glucosamine-6-phosphate [5] came to 1720 ± 340 µM. Further, the “self-cleavage kobs at 640 uM GlcN6P” value in the data set with glucosamine-6-phosphate [3] was 5.93e-05 ± 7.9e-06 s⁻¹. The “self-cleavage kobs at 2500 uM GlcN6P” value in the data set with glucosamine-6-phosphate [4] amounted to 0.000159 ± 1.6e-05 s⁻¹. Besides, the “self-cleavage kobs at 10000 uM GlcN6P” value with glucosamine-6-phosphate [6] was 0.000195 ± 1.5e-05 s⁻¹.

In the case of U31A C70U, the kcat with glucosamine-6-phosphate [1] worked out at 0.0129 ± 0.0056 s⁻¹. Further, the “self-cleavage kobs at 40 uM GlcN6P” value with glucosamine-6-phosphate [7] came to 0.000386 ± 5.3e-05 s⁻¹. Further, the “self-cleavage kobs at 160 uM GlcN6P” value with glucosamine-6-phosphate [2] stood at 0.000843 ± 0.00019 s⁻¹. In addition, in the data set with glucosamine-6-phosphate [3], the “self-cleavage kobs at 640 uM GlcN6P” value stood at 0.00235 ± 0.00031 s⁻¹. Also, the “self-cleavage kobs at 2500 uM GlcN6P” value in the data set with glucosamine-6-phosphate [4] is 0.0115 ± 0.0032 s⁻¹. Moreover, the “self-cleavage kobs at 10000 uM GlcN6P” value with glucosamine-6-phosphate [6] was found to be 0.0113 ± 0.0017 s⁻¹.
